Experiment [1] has as its target WT1 peptide (…; SEQ ID NO: 97) presented on peptide-pulsed T2 cells (UniProt P61769). The experiment in a line: cell-based or functional assay. The note with it: scale: nM.
Experiment [2] concerns the target T1, WT1 (Wilms' tumor antigen-1) peptide on HLA-A*02:01 (human).
T1 peptide: YMLDLQPETT
The experiment in a line: full-length, on cells.

In experiment [3] the target is WT1 peptide (…; SEQ ID NO: 97) presented on peptide-pulsed T2 cells (UniProt P61769 21-119, limits assumed). Kind of experiment: cell-based or functional assay.

B1: eJH64_WT1C_6 (TCR, V domains shown)
Valpha: AQSVAQPEDQVNVAEGNPLTVKCTYSVSGNPYLFWYVQYPNRGLQFLLKYITGDNLVKGSYGFEAEFNKSQTSFHLKKPSALVSDSALYFCAVRDMRYGGATNKLIFGTGTLLAVQP
Vbeta: ETGVTQTPRHLVMGMTNKKSLKCEQHLGHNAMYWYKQSAKKPLELMFVYSLEERVENNSVPSRFSPECPNSSHLFLHLHTLQPEDSALYLCASSQDGLAGAASFNNEQFFGPGTRLTVL
In turn, B1 gave an EC50 of functional avidity: CD69 MFI of TCR+ cells against WT1 10mer peptide concentration pulsed on T2 cells in experiment [1] of 0.7. In experiment [2], the EC50 of peptide was found to be 0.7 nM.

B2: eJH30_WT1C_8 (TCR, V domains shown)
V domain 1: GQQLNQSPQSMFIQEGEDVSMNCTSSSIFNTWLWYKQEPGEGPVLLIALYKAGELTSNGRLTAQFGITRKDSFLNISASIPSDVGIYFCAGRGSQGNLIFGKGTKLSVKP
V domain 2: DTAVSQTPKYLVTQMGNDKSIKCEQNLGHDTMYWYKQDSKKFLKIMFSYNNKELIINETVPNRFSPKSPDKAHLNLHINSLELGDSAVYFCASSHWQETQYFGPGTRLLVLE
Consider B2, for which the “EC50 (nM) of functional avidity: CD69 MFI of TCR+ JRT3 cells against WT1-pep concentration pulsed on T2 cells” value in experiment [3] is 10.9 nM.

B3: eJH30_WT1C_5 (TCR, V domains shown)
V domain 1: GENVEQHPSTLSVQEGDSAVIKCTYSDSASNYFPWYKQELGKGPQLIIDIRSNVGEKKDQRIAVTLNKTAKHFSLHITETQPEDSAVYFCAAGGRDDKIIFGKGTRLHILP
V domain 2: EPEVTQTPSHQVTQMGQEVILRCVPISNHLYFYWYRQILGQKVEFLVSFYNNEISEKSEIFDDQFSVERPDGSNFTLKIRSTKLEDSAMYFCASSERLGTMAYNSPLHFGNGTRLTVTE
For B3, the “EC50 (nM) of functional avidity: CD69 MFI of TCR+ JRT3 cells against WT1-pep concentration pulsed on T2 cells” value in experiment [3] came out at 51.9 nM.
